14 molecules from patent publication US20200392198A1 (UNIVERSITY OF COPENHAGEN, published 2020) can be followed below.

Where two headings read alike, the source gives them in different places. Ends that are not written are not given here. * marks the point of attachment. Palmitoyl = CCCCCCCCCCCCCCCC(=O)*; Lauroyl = CCCCCCCCCCCC(=O)*

Common to all, as to test: cell-based or functional assay
Assay [1] has as its target T1, human GLP-2 receptor (human, UniProt O95838 1-553).
T1 sequence (looked up): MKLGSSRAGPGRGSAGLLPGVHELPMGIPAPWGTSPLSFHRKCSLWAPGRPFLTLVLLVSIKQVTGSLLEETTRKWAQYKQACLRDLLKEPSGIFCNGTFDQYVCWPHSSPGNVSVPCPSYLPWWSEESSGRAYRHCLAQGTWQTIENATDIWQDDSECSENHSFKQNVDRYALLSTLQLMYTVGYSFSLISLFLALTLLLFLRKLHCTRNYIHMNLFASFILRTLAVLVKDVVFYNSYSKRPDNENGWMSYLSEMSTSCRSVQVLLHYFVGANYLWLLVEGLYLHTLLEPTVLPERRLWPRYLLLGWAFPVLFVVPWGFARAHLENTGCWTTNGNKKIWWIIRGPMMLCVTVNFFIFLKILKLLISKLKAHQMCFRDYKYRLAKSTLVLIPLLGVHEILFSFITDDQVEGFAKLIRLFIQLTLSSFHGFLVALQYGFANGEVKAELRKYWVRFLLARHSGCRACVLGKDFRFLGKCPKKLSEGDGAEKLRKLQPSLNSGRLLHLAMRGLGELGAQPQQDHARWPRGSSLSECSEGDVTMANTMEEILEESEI

Assay [2] has as its target T2, human GIP receptor (human, UniProt P48546 22-466).
T2 sequence (looked up): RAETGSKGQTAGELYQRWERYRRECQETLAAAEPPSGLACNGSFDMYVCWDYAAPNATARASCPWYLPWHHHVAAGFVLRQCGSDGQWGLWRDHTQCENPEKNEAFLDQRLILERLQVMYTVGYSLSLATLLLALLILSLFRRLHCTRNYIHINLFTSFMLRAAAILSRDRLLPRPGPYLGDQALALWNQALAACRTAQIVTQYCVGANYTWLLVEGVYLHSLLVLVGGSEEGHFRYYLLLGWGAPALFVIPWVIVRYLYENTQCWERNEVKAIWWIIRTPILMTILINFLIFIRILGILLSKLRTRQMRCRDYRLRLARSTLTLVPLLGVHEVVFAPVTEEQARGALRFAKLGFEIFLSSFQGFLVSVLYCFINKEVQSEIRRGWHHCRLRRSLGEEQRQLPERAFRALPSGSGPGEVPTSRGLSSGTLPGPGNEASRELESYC

The target of assay [3] is T2, human GIP receptor. The source holds these as a separate data set.
Assay [4] concerns the target T1, human GLP-2 receptor. This is another data set of the same source.

For HADGTFSSDYSTILDNLAARDFINWLIQTK(Palmitoyl)ITD [GIP-GLP-2 co-agonist 23], in the assay with human GLP-2 receptor [1], the “EC50 (cAMP)” value was found to be 1.4 nM; the “Emax (10 µM), % of native GLP-2” value came out at 57%; the “fold (EC50 vs native GLP-2)” value was 1.2 fold; the “logEC50 (cAMP)” value is -8.85. In the assay with human GIP receptor [2], the “EC50 (cAMP)” value is 0.76 nM; the “Emax (10 µM), % of native GIP” value was 81%; the “fold (EC50 vs native GIP)” value was found to be 8.5 fold; the “logEC50 (cAMP)” value is -9.12.
Regarding HADGSFSDEMNTILDNLAARDFINWLIQTKITD (ligand) [human native GLP-2], in the assay with human GIP receptor [2], the “EC50 (cAMP)” value was 56 nM; the “Emax (10 µM), % of native GIP” value was 22%; the “logEC50 (cAMP)” value was -7.25. Moreover, in the assay with human GIP receptor [3], the “EC50 (cAMP)” value was 56 nM; the “Emax (10 µM), % of native GIP” value turned out to be 22%; the “logEC50 (cAMP)” value is -7.25.
For the molecule HADGTFISDYSTILDNLAARDFINWLIQTK(Lauroyl)ITK [GIP-GLP-2 co-agonist 30], in the assay with human GLP-2 receptor [1], the “EC50 (cAMP)” value is 36 nM; the “Emax (10 µM), % of native GLP-2” value came out at 73%; the “fold (EC50 vs native GLP-2)” value amounted to 30 fold; the “logEC50 (cAMP)” value is -7.44. Also, in the assay with human GIP receptor [2], the “EC50 (cAMP)” value is 0.63 nM; the “Emax (10 µM), % of native GIP” value stood at 100%; the “fold (EC50 vs native GIP)” value was 7.1 fold; the “logEC50 (cAMP)” value was -9.2.
Take HADGTFISDYSTILDNLAARDFINWLIQTK(Palmitoyl)ITK [GIP-GLP-2 co-agonist 31]: in the assay with human GLP-2 receptor [1], the “EC50 (cAMP)” value came to 107 nM; the “Emax (10 µM), % of native GLP-2” value is 91%; the “fold (EC50 vs native GLP-2)” value amounted to 89 fold; the “logEC50 (cAMP)” value is -6.97. Besides, in the assay with human GIP receptor [2], the “EC50 (cAMP)” value stood at 1.7 nM; the “Emax (10 µM), % of native GIP” value turned out to be 91%; the “fold (EC50 vs native GIP)” value stood at 19 fold; the “logEC50 (cAMP)” value was -8.77.
For the molecule HADGTFSSDYSTILDNLAAKDFINWLIQTKITD [GIP-GLP-2 co-agonist 20], in the assay with human GLP-2 receptor [1], the “EC50 (cAMP)” value stood at 1.2 nM; the “Emax (10 µM), % of native GLP-2” value is 80%; the “fold (EC50 vs native GLP-2)” value came to 1 fold; the “logEC50 (cAMP)” value is -8.92. Besides, in the assay with human GIP receptor [2], the “EC50 (cAMP)” value is 0.59 nM; the “Emax (10 µM), % of native GIP” value was determined as 98%; the “fold (EC50 vs native GIP)” value was determined as 6.6 fold; the “logEC50 (cAMP)” value is -9.23.
HADGTFISDYSTILDNLKARDFINWLIQTKITK [GIP-GLP-2 co-agonist 27]: in the assay with human GLP-2 receptor [1], the “EC50 (cAMP)” value came out at 0.56 nM; the “Emax (10 µM), % of native GLP-2” value is 100%; the “fold (EC50 vs native GLP-2)” value was determined as 0.47 fold; the “logEC50 (cAMP)” value is -9.25. In the assay with human GIP receptor [2], the “EC50 (cAMP)” value was 0.55 nM; the “Emax (10 µM), % of native GIP” value is 100%; the “fold (EC50 vs native GIP)” value stood at 6.2 fold; the “logEC50 (cAMP)” value is -9.26.
For HADGTFISDYSTILDKLAARDFINWLIQTKITK [GIP-GLP-2 co-agonist 26], in the assay with human GLP-2 receptor [1], the “EC50 (cAMP)” value was 0.31 nM; the “Emax (10 µM), % of native GLP-2” value was found to be 100%; the “fold (EC50 vs native GLP-2)” value amounted to 0.26 fold; the “logEC50 (cAMP)” value is -9.51. Besides, in the assay with human GIP receptor [2], the “EC50 (cAMP)” value was determined as 0.03 nM; the “Emax (10 µM), % of native GIP” value was determined as 100%; the “fold (EC50 vs native GIP)” value was 0.34 fold; the “logEC50 (cAMP)” value is -10.5.
Regarding HGDGTFISDYSTILDNLAARDFINWLIQTKITD [GIP-GLP-2 co-agonist 11], in the assay with human GLP-2 receptor [4], the “EC50 (cAMP)” value turned out to be 24 nM; the “Emax (10 µM), % of native GLP-2” value came to 87%; the “fold (EC50 vs native GLP-2)” value is 20 fold; the “logEC50 (cAMP)” value is -7.62. In the assay with human GIP receptor [3], the “EC50 (cAMP)” value was 3.2 nM; the “Emax (10 µM), % of native GIP” value stood at 95%; the “fold (EC50 vs native GIP)” value was determined as 36 fold; the “logEC50 (cAMP)” value is -8.5.

B1: GIP-GLP-2 co-agonist 22 (peptide)
peptide: HADGTFSSDYSTILDNLAARDFINWLIQTKITD
modifications: not fully specified (residue 1, N-terminus); also: C16 acyl group on His 1 (attachment site not given here)
With B1, in the assay with human GLP-2 receptor [1], the “EC50 (cAMP)” value turned out to be 1.3 nM; the “Emax (10 µM), % of native GLP-2” value is 72%; the “fold (EC50 vs native GLP-2)” value came to 1.1 fold; the “logEC50 (cAMP)” value was -8.88. For the same molecule, in the assay with human GIP receptor [2], the “EC50 (cAMP)” value stood at 0.41 nM; the “Emax (10 µM), % of native GIP” value is 100%; the “fold (EC50 vs native GIP)” value came out at 4.6 fold; the “logEC50 (cAMP)” value was -9.39.
For the molecule HADGTFISDYSTILDNLAAKDFINWLIQTKITK [GIP-GLP-2 co-agonist 28], in the assay with human GLP-2 receptor [1], the “EC50 (cAMP)” value is 1.2 nM; the “Emax (10 µM), % of native GLP-2” value stood at 112%; the “fold (EC50 vs native GLP-2)” value turned out to be 0.98 fold; the “logEC50 (cAMP)” value was -8.93. In the assay with human GIP receptor [2], the “EC50 (cAMP)” value came to 0.2 nM; the “Emax (10 µM), % of native GIP” value came out at 100%; the “fold (EC50 vs native GIP)” value was determined as 2.2 fold; the “logEC50 (cAMP)” value is -9.7.

B2: GIP-GLP-2 co-agonist 29 (peptide)
peptide: HADGTFISDYSTILDNLAARDFINWLIQTKITK
modifications: not fully specified (residue 1, N-terminus); also: C16 acyl group on His 1 (attachment site not given here)
On to B2, for which, in the assay with human GLP-2 receptor [1], the “EC50 (cAMP)” value was 17 nM; the “Emax (10 µM), % of native GLP-2” value stood at 82%; the “fold (EC50 vs native GLP-2)” value came out at 14 fold; the “logEC50 (cAMP)” value was -7.76. In the assay with human GIP receptor [2], the “EC50 (cAMP)” value came to 1.82 nM; the “Emax (10 µM), % of native GIP” value turned out to be 115%; the “fold (EC50 vs native GIP)” value was found to be 20 fold; the “logEC50 (cAMP)” value was -8.74.
HADGTFISDYSKILDNLAARDFINWLIQTKITK [GIP-GLP-2 co-agonist 24]: in the assay with human GLP-2 receptor [1], the “EC50 (cAMP)” value worked out at 0.74 nM; the “Emax (10 µM), % of native GLP-2” value worked out at 96%; the “fold (EC50 vs native GLP-2)” value was determined as 0.62 fold; the “logEC50 (cAMP)” value was -9.13. For the same molecule, in the assay with human GIP receptor [2], the “EC50 (cAMP)” value worked out at 0.15 nM; the “Emax (10 µM), % of native GIP” value amounted to 100%; the “fold (EC50 vs native GIP)” value is 1.7 fold; the “logEC50 (cAMP)” value was -9.82.
As to HADGTFISDYSTIKDNLAARDFINWLIQTKITK [GIP-GLP-2 co-agonist 25], in the assay with human GLP-2 receptor [1], the “EC50 (cAMP)” value was determined as 3.5 nM; the “Emax (10 µM), % of native GLP-2” value turned out to be 92%; the “fold (EC50 vs native GLP-2)” value stood at 2.9 fold; the “logEC50 (cAMP)” value is -8.46. Further, in the assay with human GIP receptor [2], the “EC50 (cAMP)” value was determined as 0.44 nM; the “Emax (10 µM), % of native GIP” value stood at 92%; the “fold (EC50 vs native GIP)” value turned out to be 4.9 fold; the “logEC50 (cAMP)” value is -9.36.
Take HADGTFSSDYSTILDNLAAK(Palmitoyl)DFINWLIQTKITD [GIP-GLP-2 co-agonist 21]: in the assay with human GLP-2 receptor [1], the “EC50 (cAMP)” value turned out to be 6 nM; the “Emax (10 µM), % of native GLP-2” value is 75%; the “fold (EC50 vs native GLP-2)” value is 5 fold; the “logEC50 (cAMP)” value was -8.22. For the same molecule, in the assay with human GIP receptor [2], the “EC50 (cAMP)” value was 34 nM; the “Emax (10 µM), % of native GIP” value turned out to be 94%; the “fold (EC50 vs native GIP)” value turned out to be 381 fold; the “logEC50 (cAMP)” value was -7.47.
